Reference: patent US7657385B2

Molecular target: CD81-LEL (large extracellular loop of human CD81, amino acids 113-201) (human)
Assay: X-ray crystal structure; dimer in the asymmetric unit

A subunit interface of 986 Å^2 was found for “CD81-LEL (large extracellular loop of human CD81, amino acids 113-201) (receptor)” in this work.
